To fix the notation:
T1: recombinant human CD300LB overexpressed on Jurkat cells (human, UniProt A8K4G0 18-201)
T1 construct: also called huCD300LB; huCD300LB-expressing Jurkat cells
T1 sequence: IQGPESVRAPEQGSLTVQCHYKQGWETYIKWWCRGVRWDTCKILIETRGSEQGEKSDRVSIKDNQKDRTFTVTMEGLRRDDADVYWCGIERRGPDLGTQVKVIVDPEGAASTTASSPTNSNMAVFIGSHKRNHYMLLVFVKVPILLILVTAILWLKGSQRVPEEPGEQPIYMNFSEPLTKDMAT

T2: murine CD300LB stably expressed on Jurkat cells (mouse, UniProt Q3U497 18-209)
T2 construct: also called muCD300LB; mouse CD300LB
T2 sequence: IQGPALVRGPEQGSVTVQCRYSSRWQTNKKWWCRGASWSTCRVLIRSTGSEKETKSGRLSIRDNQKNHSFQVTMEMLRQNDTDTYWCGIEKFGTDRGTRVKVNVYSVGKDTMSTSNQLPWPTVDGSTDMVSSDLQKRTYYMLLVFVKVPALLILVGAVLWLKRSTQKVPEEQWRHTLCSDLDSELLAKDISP

B1: anti-CD300LB antibody CD-18 (antibody, V domains shown)
VH: DVQLQESGPDLVKPSQSLSLTCTVTGYSITSGYSWHWIRQFPDNKLEWMGYILSRGDTNFNPSLKSRISITRSTSNNQFFLHFNSVTTEDTATYYCARDFFDYWGQGTTLTVSS
VL: DVLMTQTPLSLPVSLGDQASISCRSSQSIVHSNGNTYLEWYLQKPGQSPKLLIYKVSDRFSGVPDRFSGSGSGTDFTLKISRVEAEDLGVYFCFQGSHVPYTFGGGTKLEIK
B2: anti-CD300LB antibody CD-17 (antibody, V domains shown)
VH: QIQLVQSGPELKKPGETVKISCKASGYTLTDYSMHWVKQAPGKGLKWMGWINTETGEPRYGDDFKGRFAFSLETSASSAYLQINNLKNDDTATYFCATYGRSYGMDFWGQGTSVTVSS
VL: DIVLTQSPASLAVSLGQRATISCRASKSVSPSGHSYMHWYQQKPGQPPKLLIYLASNLKSGVPARFSGSGSGTDFTLNIHPVEEGDAATYYCQHNRELPPTFGGGSKLEIK
B3: anti-CD300LB antibody CD-10 (antibody, V domains shown)
VH: QVQLQQSGPELVRPGVSVKISCKGSGYTFTDYAMHWVKQSHVRSREWIGVIGTYNGHTNYNQKFKGKATMTVDKSSSTAYLELARLTSEDSAIYYCARSGSYYYSMDYWGQGTSVTVSS
VL: QIVLTQSPAIMSASPGEKVTMTCSASSSVNYMHWYQQKSGTSPKRWIYDTSKLSSGVPARFSGSGSGTSYSLTISTMEAEDAATYYCQQWSSNPPMTFGGGTKLEIK

In one assay the target is T1, recombinant human CD300LB overexpressed …. Description: flow cytometry, stable Jurkat cells, supernatant or 10 ug/mL, isotype subtracted. In outline: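 Binding was read as live-gated APC gMFI minus the matching isotype control, after an APC anti-human or anti-mouse secondary. Antibodies, either as hybridoma supernatants or purified at 10 μg/mL, were incubated 1 hour with a pooled mix of mouse-CD300LB, human-CD300LB and parental Jurkat cells, distinguished by CFSE/VioBlue labeling.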
In the case of B1, the gMFI was 114 gMFI.
As for B2, the gMFI came out at 13 gMFI.
On the same count and under the same terms, the result for B3 reads 18 gMFI.

A further assay deals with T2, murine CD300LB stably expressed on …. Description: flow cytometry, stable Jurkat cells, 10 ug/mL, isotype subtracted. On the procedure:
Purified anti-CD300LB antibodies of the present disclosure were analyzed for cross-reactivity to other murine CD300 family members stably expressed in Jurkat cells (generation of which is described above). Cells were counted and labeled with 200 nM CFSE, 500 nM VioBlue, or a combination of the two to discriminate between muCD300LB, Parental cells, CD300F, and the other CD300 family members. Cells were washed thoroughly with PBS containing 2% fetal bovine serum then resuspended at a total of 240,000 cells per well. Purified antibodies at 10 μg/mL were added and incubated for one hour before the cells were washed twice again and stained with an APC-labeled anti-mouse secondary. Cells were then analyzed using a BD FACSCanto II. Antibodies were analyzed for specific binding to muCD300LB by FlowJo software by gating on live cells, then the APC gMFI calculated for each labeled population by subtracting the gMFI of the isotype control. The gMFI results of the analysis are presented below in Table 4.
As for B1, the gMFI was found to be 2520 gMFI.
The same measure, in the same setting: the result for B2 reads 7920 gMFI; that for B3, 1610 gMFI.

The record behind these values is patent US20240254227A1 (Alector, published 2024).
